One experiment addresses T1, Bio-C9V mutant.
T1 construct: also called biotinylated ESO157 C9V/HLA-A*02:01 complex monomer
The experiment can be described thus: phage ELISA: streptavidin plate coated with biotinylated peptide/HLA-A*02:01 monomer, phage detected with HRP-conjugated anti-M13 antibody, absorbance at 450 nm. Background: In an ELISA, binding on a coated surface is turned into a signal by an enzyme label.

In experiment [1] the target is ESO157 A5 peptide (…)/HLA-A*02:01 complex on T2 cells (human). The experiment can be described thus: FACS, peptide-pulsed T2 cells. (Flow cytometry measures light scatter and fluorescence of single cells or particles in a stream.)
For experiment [2], the target named is T2, ESO157 wild type peptide (…)/HLA-A*02:01 complex on cells (human).
T2 construct: also called ESO157-loaded T2 cells
The experiment can be described thus: FACS, peptide-pulsed T2 cells.

Experiment [3] concerns the target ESO157 A6 peptide (…)/HLA-A*02:01 complex on T2 cells (human). The experiment can be described thus: FACS, peptide-pulsed T2 cells.
Experiment [4] concerns the target ESO157 A4 peptide (…)/HLA-A*02:01 complex on T2 cells (human). Kind of experiment: FACS, peptide-pulsed T2 cells.
The target of experiment [5] is ESO157 A3 peptide (…)/HLA-A*02:01 complex on T2 cells (human). The experiment can be described thus: FACS, peptide-pulsed T2 cells.
In experiment [6] the target is T3, HLA-A*02:01 on T2 cells without peptide loading (human).
T3 construct: TAP-deficient T2 cells, no peptide added; also called No peptide; T2 cells with no peptide loaded
The experiment can be described thus: FACS, peptide-pulsed T2 cells.

For experiment [7], the target named is ESO157 A1 peptide (…)/HLA-A*02:01 complex on T2 cells (human). The experiment can be described thus: FACS, peptide-pulsed T2 cells.
The target in experiment [8] is ESO157 A7 peptide (…)/HLA-A*02:01 complex on T2 cells (human). The experiment can be described thus: FACS, peptide-pulsed T2 cells.
The target in experiment [9] is ESO157 A8 peptide (…)/HLA-A*02:01 complex on T2 cells (human). The experiment can be described thus: FACS, peptide-pulsed T2 cells.
The target of experiment [10] is biotinylated recombinant ESO157/HLA-A*02:06 complex (human). The experiment can be described thus: BLI (Octet QK), biotinylated pMHC on streptavidin sensor, BsAb 10 ug/mL. Background: BLI is a label-free optical method that tracks binding on a fibre tip over time.
Experiment [11] deals with biotinylated recombinant ESO157/HLA-A*02:05 complex (human). The description is as above.
Experiment [12] has as its target biotinylated recombinant ESO157/HLA-A*02:03 complex (human). The experiment is described as above.
The target in experiment [13] is biotinylated recombinant ESO157/HLA-A*02:02 complex (human). Described as above.
The target in experiment [14] is biotinylated recombinant ESO157/HLA-A*02:11 complex (human). The description is as above.
The target of experiment [15] is biotinylated recombinant ESO157/HLA-A*02:05 complex (human). Described as above. This is another data set of the same source.
The target of experiment [16] is biotinylated recombinant ESO157/HLA-A*02:02 complex (human). The description is as above. The source holds these as a separate data set.
The target of experiment [17] is T4, biotinylated recombinant ESO157 wild type peptide/HLA-A*02:01 complex monomer (human).
T4 construct: also called recombinant ESO157/HLA-A*02:01 complex; biotin-labelled ESO157 wild type peptide/HLA-A*02:01 complex
The experiment can be described thus: SPR (Biacore X100), biotinylated pMHC on streptavidin chip, BsAb as analyte.

The results in this text go back to patent US20190382504A1 (EUREKA THERAPEUTICS, published 2019).

B1: phage clone #116, anti-ESO157/HLA-A*02:01 scFv displayed on phage (scFv, V domains shown)
VH: QVQLVQSGPEVKKPGASMKVSCKASGYTFTKYGISWVRQAPGQGLEWMGWISADSGKTSYAQNLQGRVSLTIDTSTATAYMELRSLRSDDTAVYYCARDDDSWGQGTLVTVSS
VL: QSVLTQPPSVSAAPGQKVTISCSGSSSNIGNNYVSWYQQLPGTAPKLLIYDNNKRPSGIPDRFSGSKSGTSATLGITGLQTGDEADYYCGTWDSSLSAEVFGTGTKVTVLG
Take B1: the binding result in the experiment with Bio-C9V mutant is recorded as “binds”. Further, the MFI in experiment [1] is 1340; in [2], 11300; in experiment [3] it was 2640; in [4], 1150; in [5], 16500; in [6] it was 502. Besides, the figures for the MFI in [7], in experiment [8] and in [9] were 19600, 14400 and 3400, respectively.

B2: ESO157 BsAb #52 (anti-ESO157/HLA-A*02:01 scFv x anti-human CD3epsilon scFv, single chain) (bispecific antibody)
chain: QSVLTQPPSVSGAPGQRVTISCTGSSSNIGAGYDVHWYQQLPGTAPKLLIYGDTNRPSGVPDRISGSKSGTSASLAITGLQAEDEADYYCQSYDSNLYTYVFGTGTKVTVLGSRGGGGSGGGGSGGGGSLEMAQVQLVQSGAEVKKPGASVKVSCKASGYTFTSYGISWVRQAPGQGLEWMGWISAYNGNTNYAQKLQGRVTMTTDTSTSTAYMELRSLRSDDTAVYYCARYSGYYAGDSWGQGTLVTVSS
Take B2: the dissociation constant (Kd) was determined as 140 nM in experiment [10], 26 nM in experiment [11], 82 nM in experiment [12] and 63 nM in [13].

B3: phage clone #66, anti-ESO157/HLA-A*02:01 scFv displayed on phage (scFv, V domains shown)
VH: EVQLVESGAEVKRPGASVKVSCKASGYTFTSYGISWVRQAPGQGLEWMGRFIPNLNKGNSAHKFEGRVSFTADKFTNTAYMELRGLKSDDTAVYYCARGDYGSDQWGQGTLVTVSS
VL: QSVLTQPPSVSGAPGQRVTISCTGSSSNIGAGYDVHWYQQLPGTAPKLLIYGNSNRPSGVPDRFSGSKSGTSASLAITGLQAEDEADYYCQSYDSSLSGSWVFGGGTKLTVLG
For the molecule B3, the binding result with Bio-C9V mutant is “binds”. The MFI in experiment [1] was determined as 748; in experiment [2] it was 67000; in [3], 19800; in experiment [4] it was 48100; in [5], 38400; in experiment [6], 157. Further, the MFI in experiment [7] was found to be 82400; in experiment [8] it was 64400; in experiment [9], 90500.

B4: phage clone #52, anti-ESO157/HLA-A*02:01 scFv displayed on phage (scFv, V domains shown)
VH: QVQLVQSGAEVKKPGASVKVSCKASGYTFTSYGISWVRQAPGQGLEWMGWISAYNGNTNYAQKLQGRVTMTTDTSTSTAYMELRSLRSDDTAVYYCARYSGYYAGDSWGQGTLVTVSS
VL: QSVLTQPPSVSGAPGQRVTISCTGSSSNIGAGYDVHWYQQLPGTAPKLLIYGDTNRPSGVPDRISGSKSGTSASLAITGLQAEDEADYYCQSYDSNLYTYVFGTGTKVTVLG
On to B4, for which the binding result with Bio-C9V mutant is on record as “binds”. In addition, the MFI in experiment [1] was determined as 107; in [2], 14500; in [3], 1880; in experiment [4], 4740; in experiment [5], 17700; in [6], 113. Also, the figures for the MFI in experiment [7], in experiment [8] and in experiment [9] were 14900, 9890 and 19200, respectively.

B5: ESO157 BsAb #76 (anti-ESO157/HLA-A*02:01 scFv x anti-human CD3epsilon scFv, single chain) (bispecific antibody)
chain: QSVVTQPPSLSGAPGQRVTISCNGSGSNIGAGYDVHWYQQLPGTAPKLLIYGNSNRPSGVPDRFSGSKSGTSASLAITGLQAEDEADYYCQSYDSSLSGWGIFGGGTKLTVLGSRGGGGSGGGGSGGGGSLEMAEVQLVQSGAEVKKPGSSVKVSCKASGGTFSSYAISWVRQAPGQGLEWMGGIIPIFGTANYAQKFQGRVTITADESTSTAYMELSSLRSEDTAVYYCARYDSYVYDEWGQGTLVTVSS
In the case of B5, the Kd in [10] came to 126 nM; in experiment [11] it was 40 nM; in experiment [14], 97 nM; in experiment [12], 47 nM; in experiment [13], 34 nM.

B6: phage clone #148, anti-ESO157/HLA-A*02:01 scFv displayed on phage (scFv, V domains shown)
VH: EVQLVQSGAEVKKPGASVKVSCKASGGTFSSYAISWVRQAPGQGLEWMGGIIPIFGTANYAQKFQGRVTITADKSTSTAYMELSSLRSEDTAVYYCARSYWSWTPYDPWGQGTLVTVSS
VL: LPVLTQPPSVSVAPGKTARITCGGNNIGSKSVHWYQQKPGQAPVLVIYYDSDRPSGIPERFSGSNSGNTATLTISRVEAGDEADYYCQVWDSSSDHYVFGTGTKVTVLG
In the case of B6, the binding result with Bio-C9V mutant is reported as “binds”. The MFI in experiment [1] was 14200; in experiment [3], 17500; in [4], 240; in experiment [5], 52900; in [6], 208; in experiment [7] it was 27700. For the same molecule, the MFI in experiment [8] turned out to be 62400; in experiment [9] it was 58300.

B7: ESO157 BsAb #148 (anti-ESO157/HLA-A*02:01 scFv x anti-human CD3epsilon scFv, single chain) (bispecific antibody, V domains shown, not shown: small tags and cut ends)
VH: EVQLVQSGAEVKKPGASVKVSCKASGGTFSSYAISWVRQAPGQGLEWMGGIIPIFGTANYAQKFQGRVTITADKSTSTAYMELSSLRSEDTAVYYCARSYWSWTPYDPWGQGTLVTVSS
VL: LPVLTQPPSVSVAPGKTARITCGGNNIGSKSVHWYQQKPGQAPVLVIYYDSDRPSGIPERFSGSNSGNTATLTISRVEAGDEADYYCQVWDSSSDHYVFGTGTKVTVL
Turning to B7, the Kd was determined as 224 nM in experiment [10]; 18 nM in experiment [15]; 19 nM in [16]; 85 nM in [12]; 6 nM in [17]. Moreover, the koff in [17] was 0.000902 s⁻¹. Besides, in experiment [17], the kon came out at 151000 M⁻¹ s⁻¹.

B8: ESO157 BsAb #66 (anti-ESO157/HLA-A*02:01 scFv x anti-human CD3epsilon scFv, single chain) (bispecific antibody)
chain: QSVLTQPPSVSGAPGQRVTISCTGSSSNIGAGYDVHWYQQLPGTAPKLLIYGNSNRPSGVPDRFSGSKSGTSASLAITGLQAEDEADYYCQSYDSSLSGSWVFGGGTKLTVLGSRGGGGSGGGGSGGGGSLEMAEVQLVESGAEVKRPGASVKVSCKASGYTFTSYGISWVRQAPGQGLEWMGRFIPNLNKGNSAHKFEGRVSFTADKFTNTAYMELRGLKSDDTAVYYCARGDYGSDQWGQGTLVTVSS
Take B8: the Kd in experiment [10] came to 58 nM; in experiment [11], 33 nM; in experiment [14], 48 nM; in experiment [12], 47 nM; in experiment [13], 25 nM.

B9: ESO157 BsAb #35 (anti-ESO157/HLA-A*02:01 scFv x anti-human CD3epsilon scFv, single chain) (bispecific antibody, not shown: small tags and cut ends)
scFv: QSVVTQPPSVSAAPGQKVTISCSGSSSNIGNNYVSWYQQLPGTAPKLLIYDNNKRPSGIPDRFSGSKSGTSATLGITGLQTGDEADYYCGTWDSSLSAWVFGGGTKLTVLGSRGGGGSGGGGSGGGGSLEMAQVQLVQSGAEVKKPGSSVKVSCKASGDTFSSYSISWVRQAPGQGLEWMGRIIPILGIANYAQKYQGRVTLSADKSTSTSYMELNSLRSEDTAVYYCARDWSYSIDYWGQGTLVTVSS
notes: also called NY-ESO-1 BsAb #35
As to B9, the Kd in [10] turned out to be 78 nM; in experiment [16], 22 nM; in experiment [12], 50 nM; in experiment [17], 14.1 nM. For the same molecule, the koff in [17] is 0.00128 s⁻¹. In experiment [17], the kon is 90900 M⁻¹ s⁻¹.

What is called Kd is a measure of binding affinity in units of concentration. By koff is commonly meant a measure of how fast the partners let go of each other. As usually defined, the kon is the second-order rate constant of association.
